Measured values published in publication PMC7614228, “Structural maturation of SYCP1-mediated meiotic chromosome synapsis by SYCE3” (Nature structural & molecular biology, 2023).
“And” between values parts separate entries of the source, which are not always exact repeats. Identical values can stand only once.

B1: SYCP1αNcore (amino-acids 206-362) (domain or fragment, human, UniProt Q15431 206-362, looked up)
chain: ETRQVYMDLNNNIEKMITAFEELRVQAENSRLEMHFKLKEDYEKIQHLEQEYKKEINDKEKQVSLLLIQITEKENKMKDLTFLLEESRDKVNQLEEKTKLQSENLKQSIEKQHHLTKELEDIKVSLQRSVSTQKALEEDLQIATKTICQLTEEKETQ
notes: SYCP1 αNcore (tetrameric core), amino-acids 206-362; Tetramer alone (SEC-MALS); two chains in the 2:1 complex with SYCE3; also called SYCP1 tetrameric core; source: E. coli BL21(DE3), purified alone or co-expressed and co-purified with SYCE3 (amylose, TEV, anion exchange, SEC); not shown: MBP, N-terminal, cleaved
B2: MBP-SYCP1αNcore (amino-acids 206-362) (domain or fragment, human, UniProt Q15431 206-362, looked up)
chain: ETRQVYMDLNNNIEKMITAFEELRVQAENSRLEMHFKLKEDYEKIQHLEQEYKKEINDKEKQVSLLLIQITEKENKMKDLTFLLEESRDKVNQLEEKTKLQSENLKQSIEKQHHLTKELEDIKVSLQRSVSTQKALEEDLQIATKTICQLTEEKETQ
notes: SYCP1 αNcore (tetrameric core), amino-acids 206-362; source: E. coli BL21(DE3), co-expressed with SYCE3 constructs; in lysate (amylose pull-down) or co-purified (amylose, anion exchange, SEC); not shown: MBP, N-terminal, kept
B3: SYCP1αN (amino-acids 101-362) (domain or fragment, human, UniProt Q15431 101-362, looked up)
chain: GLSRVYSKLYKEAEKIKKWKVSTEAELRQKESKLQENRKIIEAQRKAIQELQFGNEKVSLKLEEGIQENKDLIKENNATRHLCNLLKETCARSAEKTKKYEYEREETRQVYMDLNNNIEKMITAFEELRVQAENSRLEMHFKLKEDYEKIQHLEQEYKKEINDKEKQVSLLLIQITEKENKMKDLTFLLEESRDKVNQLEEKTKLQSENLKQSIEKQHHLTKELEDIKVSLQRSVSTQKALEEDLQIATKTICQLTEEKETQ
notes: SYCP1 α-helical N-terminal region, amino-acids 101-362; source: E. coli BL21(DE3), purified, alone or co-expressed and co-purified with SYCE3
B4: MBP-SYCP1αN (domain or fragment, human, UniProt Q15431 101-362, looked up)
chain: GLSRVYSKLYKEAEKIKKWKVSTEAELRQKESKLQENRKIIEAQRKAIQELQFGNEKVSLKLEEGIQENKDLIKENNATRHLCNLLKETCARSAEKTKKYEYEREETRQVYMDLNNNIEKMITAFEELRVQAENSRLEMHFKLKEDYEKIQHLEQEYKKEINDKEKQVSLLLIQITEKENKMKDLTFLLEESRDKVNQLEEKTKLQSENLKQSIEKQHHLTKELEDIKVSLQRSVSTQKALEEDLQIATKTICQLTEEKETQ
notes: SYCP1αN, amino-acids 101-362; source: E. coli BL21(DE3), co-purified with His-SYCE3

Columns and labels:
[1] = biological target: B1; assay: SEC-MALS; co-expressed and co-purified SYCP1-SYCE3 complexes, 5-20 mg/ml; 20 mM Tris pH 8.0, 150 mM KCl, 2 mM DTT (Superose 6 Increase for MBP-SYCP1αN-His-SYCE3); conditions: both partners purified
MBP-SYCP1αN = biological target: B4; assay: as above; conditions: both partners purified
[2] = biological target: B2; assay: as above; conditions: both partners purified
[3] = biological target: B1; assay: ITC; SYCE3 (400 μM) injected into SYCP1αNcore (70 μM) at 30°C; 25 mM Tris pH 8.0, 250 mM KCl, 2 mM DTT; apparent affinity; conditions: both partners purified
[4] = biological target: B3; assay: SEC-MALS; co-expressed and co-purified SYCP1-SYCE3 complexes, 5-20 mg/ml; 20 mM Tris pH 8.0, 150 mM KCl, 2 mM DTT (Superose 6 Increase for MBP-SYCP1αN-His-SYCE3); conditions: both partners purified
[5] = biological target: the molecule itself; assay: SEC-MALS; proteins in isolation, 5-20 mg/ml; Superdex 200 Increase, 20 mM Tris pH 8.0, 150 mM KCl, 2 mM DTT
[6] = biological target: the molecule itself; assay: SEC-MALS; co-expressed and co-purified SYCP1-SYCE3 complexes, 5-20 mg/ml; 20 mM Tris pH 8.0, 150 mM KCl, 2 mM DTT (Superose 6 Increase for MBP-SYCP1αN-His-SYCE3)

Row | stoichiometry N [1] | Binder | stoichiometry N [6] | further results
1 | 2 SYCP1 chains per SYCE3 chain | SYCE3 P53Q (natural protein, human, UniProt A1L190 1-88, looked up, SYCE3 with P53Q; source: E. coli BL21(DE3), co-purified with SYCP1αNcore; not shown: His or His-MBP, N-terminal, cleaved) MDDADPEERNYDNMLKMLSDLNKDLEKLLEEMEKISVQATWMAYDMVVMRTNQTLAESMRRLEDAFVNCKEEMEKNWQELLHETKQRL | – | –
2 | – | His-SYCE3 (full-length, amino-acids 1-88) (natural protein, human, UniProt A1L190 1-88, looked up, SYCE3, full-length = amino-acids 1-88; source: E. coli BL21(DE3), co-expressed with MBP fusions; in lysate (amylose pull-down) or co-purified; not shown: His, N-terminal, kept) MDDADPEERNYDNMLKMLSDLNKDLEKLLEEMEKISVQATWMAYDMVVMRTNPTLAESMRRLEDAFVNCKEEMEKNWQELLHETKQRL | – | stoichiometry N (MBP-SYCP1αN): 2 SYCP1 chains per SYCE3 chain (2:1) and 4 SYCP1 chains with 2 SYCE3 chains (4:2); stoichiometry N [2]: 2 SYCP1 chains per SYCE3 chain
3 | 2 SYCP1 chains per SYCE3 chain | MBP-SYCE3 (natural protein, human, UniProt A1L190 1-88, looked up, SYCE3 without a stated truncation; source: E. coli BL21(DE3), co-purified with SYCP1αNcore constructs) MDDADPEERNYDNMLKMLSDLNKDLEKLLEEMEKISVQATWMAYDMVVMRTNPTLAESMRRLEDAFVNCKEEMEKNWQELLHETKQRL | – | stoichiometry N [2]: 2 SYCP1 chains per SYCE3 chain
4 | 2 SYCP1 chains per SYCE3 chain | SYCE3 W41E Y44E (natural protein, human, UniProt A1L190 1-88, looked up, SYCE3 with W41E Y44E; also called SYCE3 WY; WY mutant; source: E. coli BL21(DE3), purified, alone or co-purified with SYCP1 constructs; not shown: His or His-MBP, N-terminal, cleaved) MDDADPEERNYDNMLKMLSDLNKDLEKLLEEMEKISVQATEMAEDMVVMRTNPTLAESMRRLEDAFVNCKEEMEKNWQELLHETKQRL | – | Kd [3]: 16 nM; apparent KD of one replicate [3]: 10 nM and 22 nM and 16 nM; stoichiometry N [4]: 2 SYCP1 chains per SYCE3 chain
5 | – | SYCP1 αCore-ΔNtip (amino-acids 112-783) (domain or fragment, human, UniProt Q15431 112-783, looked up, SYCP1 α-helical core without the αNtip, amino-acids 112-783; also called SYCP1's full α-helical core, in which αNtips were deleted; source: E. coli BL21(DE3), purified, alone or in complex with SYCE3) EAEKIKKWKVSTEAELRQKESKLQENRKIIEAQRKAIQELQFGNEKVSLKLEEGIQENKDLIKENNATRHLCNLLKETCARSAEKTKKYEYEREETRQVYMDLNNNIEKMITAFEELRVQAENSRLEMHFKLKEDYEKIQHLEQEYKKEINDKEKQVSLLLIQITEKENKMKDLTFLLEESRDKVNQLEEKTKLQSENLKQSIEKQHHLTKELEDIKVSLQRSVSTQKALEEDLQIATKTICQLTEEKETQMEESNKARAAHSFVVTEFETTVCSLEELLRTEQQRLEKNEDQLKILTMELQKKSSELEEMTKLTNNKEVELEELKKVLGEKETLLYENKQFEKIAEELKGTEQELIGLLQAREKEVHDLEIQLTAITTSEQYYSKEVKDLKTELENEKLKNTELTSHCNKLSLENKELTQETSDMTLELKNQQEDINNNKKQEERMLKQIENLQETETQLRNELEYVREELKQKRDEVKCKLDKSEENCNNLRKQVENKNKYIEELQQENKALKKKGTAESKQLNVYEIKVNKLELELESAKQKFGEITDTYQKEIEDKKISEENLLEEVEKAKVIADEAVKLQKEIDKRCQHKIAEMVALMEKHKHQYDKIIEERDSELGLYKSKEQEQSSLRASLEIELSNLKAELLSVKKQLEIEREEKEKLKREAKE | 2 SYCP1 chains in the complex with SYCE3 | stoichiometry N [5]: 4
6 | – | B1 | 2 SYCP1 chains in the complex with SYCE3 | stoichiometry N [5]: 4
7 | – | B2 | 2 SYCP1 chains in the complex with SYCE3 | –
8 | – | SYCP1αN ΔNtip (domain or fragment, human, UniProt Q15431 112-362, looked up, SYCP1αN (101-362) with the αNtip (101-111) deleted; also called SYCP1 ΔNtip; source: E. coli BL21(DE3), co-purified with SYCE3) EAEKIKKWKVSTEAELRQKESKLQENRKIIEAQRKAIQELQFGNEKVSLKLEEGIQENKDLIKENNATRHLCNLLKETCARSAEKTKKYEYEREETRQVYMDLNNNIEKMITAFEELRVQAENSRLEMHFKLKEDYEKIQHLEQEYKKEINDKEKQVSLLLIQITEKENKMKDLTFLLEESRDKVNQLEEKTKLQSENLKQSIEKQHHLTKELEDIKVSLQRSVSTQKALEEDLQIATKTICQLTEEKETQ | 2 SYCP1 chains in the complex with SYCE3 | –
9 | – | B3 | 2 SYCP1 chains in the 2:1 complex with SYCE3 and 4 SYCP1 chains in the 4:2 complex with SYCE3 | –
10 | – | SYCP1αN V105E L109E (domain or fragment, human, UniProt Q15431 101-362, looked up, SYCP1αN, amino-acids 101-362, with V105E L109E; source: E. coli BL21(DE3), in complex with SYCE3) GLSREYSKEYKEAEKIKKWKVSTEAELRQKESKLQENRKIIEAQRKAIQELQFGNEKVSLKLEEGIQENKDLIKENNATRHLCNLLKETCARSAEKTKKYEYEREETRQVYMDLNNNIEKMITAFEELRVQAENSRLEMHFKLKEDYEKIQHLEQEYKKEINDKEKQVSLLLIQITEKENKMKDLTFLLEESRDKVNQLEEKTKLQSENLKQSIEKQHHLTKELEDIKVSLQRSVSTQKALEEDLQIATKTICQLTEEKETQ | 2 SYCP1 chains in the complex with SYCE3 | –
11 | – | B4 | 2 SYCP1 chains in the 2:1 complex with SYCE3 and 4 SYCP1 chains in the 4:2 complex with SYCE3 | –
12 | 2 SYCP1 chains per SYCE3 chain | SYCE3 α1-α2 (amino-acids 12-88) (domain or fragment, human, UniProt A1L190 12-88, looked up, SYCE3 α1-α2, amino-acids 12-88; source: E. coli BL21(DE3), co-purified with SYCP1αNcore; not shown: His or His-MBP, N-terminal, cleaved) DNMLKMLSDLNKDLEKLLEEMEKISVQATWMAYDMVVMRTNPTLAESMRRLEDAFVNCKEEMEKNWQELLHETKQRL | – | –
